Laboratory results as given in patent publication US20250297004A1, “NECTIN-4 BINDING AGENTS” (INNATE PHARMA, priority 2022, published 2025).
Changes are numbered by the printed parent chain.

T1: human Nectin-4 Mutant 3 (human, UniProt Q96NY8 32-510)
T1 construct: Expressed on transfected HEK293T cells; also called A76S/Q77R/E78A/S91N
T1 chain: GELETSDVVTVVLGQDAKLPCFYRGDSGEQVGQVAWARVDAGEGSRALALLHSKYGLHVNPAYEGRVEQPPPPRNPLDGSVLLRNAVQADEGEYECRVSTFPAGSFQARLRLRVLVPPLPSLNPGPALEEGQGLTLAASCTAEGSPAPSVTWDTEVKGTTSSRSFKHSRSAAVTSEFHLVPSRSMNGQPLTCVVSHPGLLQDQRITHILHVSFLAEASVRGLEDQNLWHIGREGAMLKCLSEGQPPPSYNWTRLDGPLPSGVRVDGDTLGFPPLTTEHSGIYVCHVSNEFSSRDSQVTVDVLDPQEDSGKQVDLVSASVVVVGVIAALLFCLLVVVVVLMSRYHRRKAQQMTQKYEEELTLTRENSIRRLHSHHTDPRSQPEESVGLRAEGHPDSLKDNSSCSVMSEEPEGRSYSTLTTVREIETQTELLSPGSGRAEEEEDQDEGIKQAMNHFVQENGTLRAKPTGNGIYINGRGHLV

T2: human Nectin-4 Mutant 8 (human, UniProt Q96NY8 32-510)
T2 construct: Expressed on transfected HEK293T cells; also called T190A/T191Q/S193A
T2 chain: T1 chain with S45A, R46Q, A47E, N60S, T159A, T160Q, S162A

T3: human Nectin-4 Mutant 2 (V90S/P92A/A93S/E95A/G96D) (Homo sapiens, UniProt Q96NY8, A93S/E95A/G96D/P92A/V90S)
T3 construct: expressed in transfected cells; host or cells: HEK293T
T3 sequence (Q96NY8 32-510 V90S/P92A/A93S/E95A/G96D): T1 chain with S45A, R46Q, A47E, V59S, N60S, P61A, A62S, E64A, G65D

T4: human Nectin-4 Mutant 6 (H238A/I239T/H241Q) (Homo sapiens, UniProt Q96NY8, H238A/H241Q/I239T)
T4 construct: expressed in transfected cells; host or cells: HEK293T
T4 sequence (Q96NY8 32-510 H238A/I239T/H241Q): T1 chain with S45A, R46Q, A47E, N60S, H207A, I208T, H210Q

B1: chimeric parental 5E7 antibody (antibody, V domains shown)
VH: QVQLQQPGAELVKPGASVKLSCKASGYIFTSYWMHWVKQRPGQGLEWIGEIDPSDSYTNYNQKFKGKATLTLDKSSSTTYMQLSSLTSEDSAVYYCVRGYGNYGDYWGQGTTLTVSS
VL: DVVMTQAAFSNPVTLGTSASISCRSSKSLLHSNGITYLYWYLQKPGQSPQLLIYQMSNLASGVPDRFSSSGSGTDFTLRISRVEAEDVGVYYCAQNLELPWTFGGGTKLEIKR
notes: Chimeric antibody, murine variable domains with human constant regions; also called ch5E7; CHG1-M-1N4-5E7
B2: N41 (antibody, V domains shown)
VH: QVQLKQSGPGLVQPSQSLSITCTVSGFSLTNYGVHWVRQSPGKGLEWLGVIWSGGSTDYNAAFISRLSISKDTSKSQVFFKMNSLQADDTAIYYCARELIHAMDNWGQGTSVTVSS
VL: DIQMTQSPASLSVSVGETVTITCRASENIYSNLAWYQQKQGNSPQLLVFAATNLADGVPSRFSGSGSGTQYSLKINSLQSEDFGTYYCQHFWGTPTFGGGTKLEIK
B3: 5E7 (antibody, V domains shown)
VH: QVQLQQPGAELVKPGASVKLSCKASGYIFTSYWMHWVKQRPGQGLEWIGEIDPSDSYTNYNQKFKGKATLTLDKSSSTTYMQLSSLTSEDSAVYYCVRGYGNYGDYWGQGTTLTVSSASTKGP
VL: DVVMTQAAFSNPVTLGTSASISCRSSKSLLHSNGITYLYWYLQKPGQSPQLLIYQMSNLASGVPDRFSSSGSGTDFTLRISRVEAEDVGVYYCAQNLELPWTFGGGTKLEIKRTVAAP

Experiments:
[1] = target: T1, human Nectin-4 Mutant 3; assay: binding to HEK293T cells expressing Nectin-4 mutant
[2] = target: T2, human Nectin-4 Mutant 8; assay: as above
[3] = target: T3, human Nectin-4 Mutant 2 (V90S/P92A/A93S/E95A/G96D); assay: Epitope mapping using Nectin-4 point mutants; type: binding
Source text: (§1) Combined with the published structures of the Nectin-4 domains, Nectin-4 mutations at surface exposed amino acids residues were designed. Nectin-4 domain structure was modelled based on Protein Data Bank reference: 4FRW (domains V et C1). Human Nectin-4 used was NCBI Reference Sequence: NP_112178.2, mouse Nectin-4 used was NCBI Reference Sequence: AAL79833.1, cynomolgus Nectin-4 used was NCBI Reference Sequence: XP_005541277.1, rat Nectin-4 used was NCBI Reference Sequence: NP_001102546.1. The cells expressing the Nectin-4 mutants are then be used for testing anti-Nectin-4 antibodies for loss of binding to different Nectin-4 mutants to identify antibodies that bind to the same site on Nectin-4. […] FIGS. 8A and 8B show different view of a molecular model of the human Nectin-4 protein, indicating the position of substituted residues in mutants 1, 2, 3, 4, 5, 6, 7, 8 and 9.
(§2) Nectin-4 mutants were generated by PCR. The sequences amplified were run on agarose gel and purified using the Macherey Nagel PCR Clean-Up Gel Extraction kit. The purified PCR products generated for each mutant were then ligated into an expression vector, with the ClonTech InFusion system. The vectors containing the mutated sequences were prepared as Miniprep and sequenced. After sequencing, the vectors containing the mutated sequences were prepared as Midiprep using the Promega PureYield™ Plasmid Midiprep System. HEK293T cells were grown in DMEM medium (Invitrogen), transfected with vectors using Invitrogen's Lipofectamine 2000 and incubated at 37° C. in a CO2 incubator for 48 hours prior to testing for transgene expression. The targeted amino acid mutations are shown in Table 13 below, listing the residue present in wild-type Nectin-4/position of residue/residue present in mutant Nectin-4, with position reference being to the Nectin-4 protein with leader peptide shown in SEQ ID NO: 1.
(§3) (+) means that antibodies-Nectin-4 association occurs.

[4] = target: T4, human Nectin-4 Mutant 6 (H238A/I239T/H241Q); assay: Epitope mapping using Nectin-4 point mutants; type: binding
Source text: as §1, §2, §3

| Molecule | binding result [1] | binding result [2] | association with Mutant 2 [3] | association with Mutant 6 [4] |
| --- | --- | --- | --- | --- |
| B1 | binds | binds | – | – |
| B2 | binds | binds | + | + |
| B3 | – | – | + | + |
